Test results taken from US20240116995A1 (89BIO, published 2024).

T1: human β-Klotho (human, UniProt Q86Z14 1-1044)
T1 sequence (looked up): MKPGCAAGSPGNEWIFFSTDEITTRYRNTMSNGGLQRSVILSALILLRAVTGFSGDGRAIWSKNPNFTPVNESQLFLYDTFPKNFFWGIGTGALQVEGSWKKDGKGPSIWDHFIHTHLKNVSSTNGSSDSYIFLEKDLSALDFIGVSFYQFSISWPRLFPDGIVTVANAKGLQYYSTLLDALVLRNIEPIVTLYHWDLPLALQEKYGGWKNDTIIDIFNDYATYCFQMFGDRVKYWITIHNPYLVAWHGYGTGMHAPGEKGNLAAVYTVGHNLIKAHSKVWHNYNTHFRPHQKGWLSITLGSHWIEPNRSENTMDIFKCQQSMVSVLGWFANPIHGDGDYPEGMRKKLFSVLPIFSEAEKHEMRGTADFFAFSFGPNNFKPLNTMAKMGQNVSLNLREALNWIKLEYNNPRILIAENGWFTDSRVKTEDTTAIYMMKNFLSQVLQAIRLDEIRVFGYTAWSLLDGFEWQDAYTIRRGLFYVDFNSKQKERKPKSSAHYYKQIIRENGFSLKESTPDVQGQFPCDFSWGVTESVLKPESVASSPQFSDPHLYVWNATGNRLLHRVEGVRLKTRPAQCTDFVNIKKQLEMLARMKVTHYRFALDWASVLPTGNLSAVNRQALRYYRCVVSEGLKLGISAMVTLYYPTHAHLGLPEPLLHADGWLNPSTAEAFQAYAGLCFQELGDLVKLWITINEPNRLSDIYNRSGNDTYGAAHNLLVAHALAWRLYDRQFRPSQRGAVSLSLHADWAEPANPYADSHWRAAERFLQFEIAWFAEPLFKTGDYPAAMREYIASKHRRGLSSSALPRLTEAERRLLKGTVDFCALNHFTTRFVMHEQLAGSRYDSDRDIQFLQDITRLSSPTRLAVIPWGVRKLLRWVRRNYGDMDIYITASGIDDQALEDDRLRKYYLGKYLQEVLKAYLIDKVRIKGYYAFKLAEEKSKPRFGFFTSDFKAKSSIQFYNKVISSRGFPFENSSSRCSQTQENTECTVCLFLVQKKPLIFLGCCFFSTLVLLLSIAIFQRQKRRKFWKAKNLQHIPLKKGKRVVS


Target: T1, human β-Klotho
Assay: cell-based or functional assay

Binder	ERK phosphorylation HEK-293 cells expressing β-Klotho EC50 values [nM]
20 kDa PEG-FGF-21 P(5)TSSP mutant conjugate (ligand, GalNAc-SA-PEG-20 kDa (glycoPEG) on the introduced threonine 6) MHPIPTSSPLLQFGGQVRQRYLYTDDAQQTEAHLEIREDGTVGGAADQSPESLLQLKALKPGVIQILGVKTSRFLCQRPDGALYGSLHFDPEACSFRELLLEDGYNVYQSEAHGLPLHLPGNKSPHRDPAPRGPARFLPLPGLPPALPEPPGILAPQPPDVGSSDPLSMVGPSQGRSPSYAS	293
30 kDa PEG-FGF-21 P(5)TSSP mutant conjugate (ligand, GalNAc-SA-PEG-30 kDa (glycoPEG) on the introduced threonine 6) MHPIPTSSPLLQFGGQVRQRYLYTDDAQQTEAHLEIREDGTVGGAADQSPESLLQLKALKPGVIQILGVKTSRFLCQRPDGALYGSLHFDPEACSFRELLLEDGYNVYQSEAHGLPLHLPGNKSPHRDPAPRGPARFLPLPGLPPALPEPPGILAPQPPDVGSSDPLSMVGPSQGRSPSYAS	> 3000
20 kDa PEG-FGF-21 P(156)TP mutant conjugate (ligand, GalNAc-SA-PEG-20 kDa (glycoPEG) on the introduced threonine 157) MHPIPDSSPLLQFGGQVRQRYLYTDDAQQTEAHLEIREDGTVGGAADQSPESLLQLKALKPGVIQILGVKTSRFLCQRPDGALYGSLHFDPEACSFRELLLEDGYNVYQSEAHGLPLHLPGNKSPHRDPAPRGPARFLPLPGLPPALPEPPGILAPTPPDVGSSDPLSMVGPSQGRSPSYAS	109
30 kDa PEG-FGF-21 P(156)TP mutant conjugate (ligand, GalNAc-SA-PEG-30 kDa (glycoPEG) on the introduced threonine 157) MHPIPDSSPLLQFGGQVRQRYLYTDDAQQTEAHLEIREDGTVGGAADQSPESLLQLKALKPGVIQILGVKTSRFLCQRPDGALYGSLHFDPEACSFRELLLEDGYNVYQSEAHGLPLHLPGNKSPHRDPAPRGPARFLPLPGLPPALPEPPGILAPTPPDVGSSDPLSMVGPSQGRSPSYAS	188
20 kDa PEG-FGF-21 P(172)TQGAS mutant conjugate (ligand, GalNAc-SA-PEG-20 kDa (glycoPEG) on the introduced threonine 173) MHPIPDSSPLLQFGGQVRQRYLYTDDAQQTEAHLEIREDGTVGGAADQSPESLLQLKALKPGVIQILGVKTSRFLCQRPDGALYGSLHFDPEACSFRELLLEDGYNVYQSEAHGLPLHLPGNKSPHRDPAPRGPARFLPLPGLPPALPEPPGILAPQPPDVGSSDPLSMVGPTQGASPSYAS	86
30 kDa PEG-FGF-21 P(172)TQGAS mutant conjugate (ligand, GalNAc-SA-PEG-30 kDa (glycoPEG) on the introduced threonine 173) MHPIPDSSPLLQFGGQVRQRYLYTDDAQQTEAHLEIREDGTVGGAADQSPESLLQLKALKPGVIQILGVKTSRFLCQRPDGALYGSLHFDPEACSFRELLLEDGYNVYQSEAHGLPLHLPGNKSPHRDPAPRGPARFLPLPGLPPALPEPPGILAPQPPDVGSSDPLSMVGPTQGASPSYAS	177
